Measured values reported in article PMC6005794, “Experimental and bioinformatic approach to identifying antigenic epitopes in human α- and β-enolases” (Biochemistry and Biophysics Reports, 2018).
Read-outs that look alike come from different tables or passages of the source.

Key:
[1] = cited from earlier work
Text: The ion-exchange chromatography was used to purify both α- and β-enolases. The method employed in this work takes advantage of different isoelectric point values calculated for human α- and β-enolases (7.38 and 7.72, respectively), muscle-specific enzymes from rat (7.45) and pig (8.8–9.0), [21]. The summary of human enolase isoenzymes purification is presented in Supplementary Table 1. The purity of the enolase preparations was examined at every purification step by SDS-PAGE and is shown on Supplementary Fig. S1.

[2] = test system: anti-β-enolase antibodies; experiment: ELISA test with pin-tethered peptides; assay type: binding, rabbit; conditions: relative to N^193VIKEKYGKDATN^205-GG-pin
Procedure: The peptides corresponding to predicted epitopes were synthesized using NCP Block of 96 hydroxypropylmethacrylate pins (MIMOTOPES, Clayton, Victoria, Australia) according to earlier described protocol. The synthesis was performed in 96-well plates, following the one-pin – one-peptide approach. Each pin was submerged in 100 μl of the solution containing 60 mM F-moc amino acid and an equimolar amount of diisopropylcarbodiimide and N-hydroxybenzotriazole as coupling reagents. Each coupling cycle lasted 4 h., and to assess the completion of the coupling reaction; pins were tested with 10 mM bromophenol blue for the presence of free amino groups. Peptides were deprotected and pins washed with MeOH, 0.5% acetic acid in MeOH, MeOH, dried, and stored at − 20 °C. […]
The TBST soaked pins were transferred to a 96-well plate filled with 200 μl of 1% BSA in TBST and incubated for 60 min at room temperature. […] The attached antibodies were detected after incubation of the pins with goat-anti-human IgG-alkaline phosphatase (AP) conjugate (ICN Biomedicals, Aurora, Ohio, USA, diluted according to the manufacturer's recommendations). The AP activity was measured to determine the level of the bound conjugate. […] The enzymatic reaction was stopped by removal of pins from the plate, and the amount of released p-nitrophenol was measured at 406 nm in a plate reader (PerkinElmer). […]

[3] = storage stability (enolase activity); assay type: physicochemical; conditions: 7.5 mM imidazole-HCl pH 6.8, 2.5 mM MgSO4, 50 mM NaCl, 50% glycerol, 4 °C
Procedure: At all stages of the enzyme purification, the magnesium sulfate and temperature set at 4 °C were used to prevent the loss of the enolase activity. Magnesium ions are essential for both catalysis and stability of the enolase dimer, [39]. Purification of β-enolase from human muscle tissue was performed according to the procedure described earlier. Briefly, 110 g of frozen striated muscle was homogenized in deionized water containing 3 mM MgSO4 and protease inhibitors PMSF (phenylmethylsulfonyl fluoride) and aprotinin (2 µg/ml). Homogenization was performed in PT3100D homogenizer (DanLab, Poland) at 4 °C for 10 min. The crude protein extract was incubated at 53–54 °C for 3 min, then cooled to 4 °C and denatured proteins removed by centrifugation at 9000 g for 45 min. The supernatant was fractionated with ammonium sulfate at 4 °C, by adding solid salt in small portions and by stirring gently. The mixture was left overnight at 4 °C after reaching 60% saturation of (NH4)2SO4 and precipitated proteins were centrifuged at 9000 g for 45 min and discarded. Protein precipitation was continued by adding solid (NH4)2SO4 up to 80% saturation, and after overnight storage at 4 C the precipitated proteins were centrifuged. The pellet was dissolved in 20 mM Tris-HCl buffer pH 9.0, containing 3 mM MgSO4 and 1 mM β − mercaptoethanol and dialyzed against this buffer. […]

[4] = muscle-specific enzymes from rat and pig

Molecule | isoelectric point ([1]; calculated for human enolases) | isoelectric point [1, 4] | further results
human α-enolase: α-enolase purified from human kidney | 7.38 | – | –
substitution of E^197 in N^193VIKEKYGKDATN^205-GG-pin with alanine: α-enolase epitope 2 peptide with E^197 substituted with alanine | – | – | loss of immunological activity on substitution [2]: 70%
muscle-specific enzyme from pig: pig muscle β-enolase (protein, UniProt Q1KYT0 2-434, looked up) Beta-enolase: AMQKIFAREILDSRGNPTVEVDLHTAKGRFRAAVPSGASTGIYEALELRDGDKSRYLGKGVLKAVEHINKTLGPALLEKKLSVVDQEKVDKFMIELDGTENKSKFGANAILGVSLAVCKAGAAEKGVPLYRHIADLAGNPDLVLPVPAFNVINGGSHAGNKLAMQEFMILPVGASSFREAMRIGAEVYHHLKGVIKGKYGKDATNVGDEGGFAPNILENNEALELLKTAIQAAGYPDKVVIGMDVAASEFYRNGKYDLDFKSPDDPSRHITGEKLGELYKSFIKNYPVVSIEDPFDQDDWKTWTSFLSGVNIQIVGDDLTVTNLKRIAQAVEKKACNCLLLKVNQIGSVTESIQACKLAQSNGWGVMVSHRSGETEDTFIADLVVGLCTGQIKTGAPCRSERLAKYNQLMRIEEALGDKAVFAGRKFRNPKAK | – | 8.8–9.0 | –
human β-enolase: β-enolase purified from human skeletal muscle (protein, UniProt P13929 2-434, looked up) Beta-enolase: AMQKIFAREILDSRGNPTVEVDLHTAKGRFRAAVPSGASTGIYEALELRDGDKGRYLGKGVLKAVENINNTLGPALLQKKLSVVDQEKVDKFMIELDGTENKSKFGANAILGVSLAVCKAGAAEKGVPLYRHIADLAGNPDLILPVPAFNVINGGSHAGNKLAMQEFMILPVGASSFKEAMRIGAEVYHHLKGVIKAKYGKDATNVGDEGGFAPNILENNEALELLKTAIQAAGYPDKVVIGMDVAASEFYRNGKYDLDFKSPDDPARHITGEKLGELYKSFIKNYPVVSIEDPFDQDDWATWTSFLSGVNIQIVGDDLTVTNPKRIAQAVEKKACNCLLLKVNQIGSVTESIQACKLAQSNGWGVMVSHRSGETEDTFIADLVVGLCTGQIKTGAPCRSERLAKYNQLMRIEEALGDKAIFAGRKFRNPKAK | 7.72 | – | storage stability [3]: several months without loss of activity
muscle-specific enzyme from rat: rat muscle β-enolase (protein, UniProt P15429 2-434, looked up) Beta-enolase: AMQKIFAREILDSRGNPTVEVDLHTAKGRFRAAVPSGASTGIYEALELRDGDKSRYLGKGVLKAVEHINKTLGPALLEKKLSVVDQEKVDKFMIELDGTENKSKFGANAILGVSLAVCKAGAAEKGVPLYRHIADLAGNPDLVLPVPAFNVINGGSHAGNKLAMQEFMILPVGASSFKEAMRIGAEVYHHLKGVIKAKYGKDATNVGDEGGFAPNILENNEALELLKTAIQAAGYPDKVVIGMDVAASEFYRNGKYDLDFKSPDDPARHISGEKLGELYKSFIKNYPVVSIEDPFDQDDWATWTSFLSGVDIQIVGDDLTVTNPKRIAQAVEKKACNCLLLKVNQIGSVTESIQACKLAQSNGWGVMVSHRSGETEDTFIADLVVGLCTGQIKTGAPCRSERLAKYNQLMRIEEALGDKAVFAGRKFRNPKAK | – | 7.45 | –
